From patent publication US20240343803A1 (SHANDONG SIMCERE BIOPHARMACEUTICAL, published 2024)

Experiments:
[1] = target: T1, Fusion protein of extracellular domain of human TIGIT and His-tag (human TIGIT ECD-his) (human); experiment: BIAcore; KD ratio to TIGIT-CHI-002
T1 chain: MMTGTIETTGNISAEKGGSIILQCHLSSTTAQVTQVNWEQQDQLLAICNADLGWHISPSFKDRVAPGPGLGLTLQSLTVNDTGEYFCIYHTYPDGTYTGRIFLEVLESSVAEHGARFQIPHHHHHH

[2] = target: T1, Fusion protein of extracellular domain …; experiment: BIAcore; KD ratio to TIGIT-CHI-006
[3] = target: T1, Fusion protein of extracellular domain …; experiment: BIAcore; KD ratio to TIGIT-CHI-070
[4] = target: T2, cynomolgus monkey TIGIT ECD-mFc (extracellular domain of cynomolgus monkey TIGIT and mouse IgG2a Fc fragment) (cynomolgus monkey); experiment: ELISA
T2 construct: entry includes the signal peptide, limits not readable here
Experimental: (§1) After discarding the coating solution, the plate was added with 5% skim milk powder (Sangon Biotech, CAT #A600669-0250)-PBS, 250 μL/well, and incubated at 37° C. for 2-4 hours. […] The enzyme-labeled plate was then washed with 0.05% Tween 20-PBS for 3 times on the Microplate Washer, added with tested antibodies diluted to 13 nM with 1% BSA (diluted by 3-fold serial dilution for 12 concentration points), 50 μL/well, and incubated at 37° C. for 1.5-2 hours. The plate was washed with 0.05% Tween 20-PBS for 3 times on the Microplate Washer, then added with HRP enzyme-labeled antibodies (Merck, CAT #AP113P) diluted with 1% BSA (Sangon Biotech, CAT #A500023-0100)-PBS at a dilution ratio of 1:5000, 50 μL/well, and incubated at 37° C. for 1 hour. After washing 3 times with 0.05% Tween 20-PBS on the Microplate Washer, the plate was added with TMB chromogenic solution (KPL, CAT #52-00-03), 50 μL/well, and incubated at room temperature for 7-10 minutes. 1M HCL, 50 μL/well, was then added into the plate to terminate the reaction, and the OD450 nm was read by a microplate reader (Biotek, Powerwave HT). […] (b) The binding activity of anti-TIGIT chimeric antibodies to CHO-K1 human TIGIT (cells with high, medium and low expression levels) and CHO-KI cynomolgus monkey TIGIT detected by FACS.

[5] = target: T3, human TIGIT ECD-mFc (fusion protein of extracellular domain of human TIGIT and mouse IgG2a Fc fragment) (human); experiment: ELISA
T3 chain: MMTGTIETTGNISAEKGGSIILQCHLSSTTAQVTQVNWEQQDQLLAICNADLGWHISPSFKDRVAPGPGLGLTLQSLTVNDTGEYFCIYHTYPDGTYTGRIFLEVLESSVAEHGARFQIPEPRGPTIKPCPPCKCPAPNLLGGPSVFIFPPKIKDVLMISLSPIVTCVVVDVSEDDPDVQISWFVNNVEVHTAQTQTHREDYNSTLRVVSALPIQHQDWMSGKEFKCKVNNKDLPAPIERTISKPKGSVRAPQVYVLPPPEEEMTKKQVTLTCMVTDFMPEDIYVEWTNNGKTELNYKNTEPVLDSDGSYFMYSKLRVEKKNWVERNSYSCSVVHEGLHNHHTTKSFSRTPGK
Experimental: as §1

[6] = target: T4, full-length cynomolgus monkey TIGIT on CHO-K1 cells (CHO-K1 cynomolgus monkey TIGIT) (cynomolgus monkey); experiment: FACS, CHO-K1 cynomolgus monkey TIGIT cells
T4 construct: NCBI XP_015300911.1; also called cynomolgus monkey TIGIT cells
Experimental: The collected cells were washed once with PBS (Hyclone, Cat NO. SH30256), resuspended to 2×10⁵/50 μL with 1% BSA-PBS. The antibodies were diluted to 80 nM with 1% BSA-PBS (diluted by 3-fold serial dilution for 12 concentration points). The 50 μL cells were then mixed with 50 μL diluted antibodies, and then incubated at 4° C. for 60 minutes. […] After washing twice with PBS, the cell samples were resuspended with 1% BSA-PBS, 100 μL/well and then analyzed by flow cytometry (BD, Canto II).

[7] = target: T5, cynomolgus monkey PVRIG on FlpinCHO-cyno PVRIG cells (cynomolgus monkey, UniProt A0A2K5WVV8 41-322); experiment: FACS, FlpinCHO-cyno PVRIG cells
T5 construct: whole, on cells; also called FlpinCHO-cynomolgus monkey PVRIG
T5 sequence: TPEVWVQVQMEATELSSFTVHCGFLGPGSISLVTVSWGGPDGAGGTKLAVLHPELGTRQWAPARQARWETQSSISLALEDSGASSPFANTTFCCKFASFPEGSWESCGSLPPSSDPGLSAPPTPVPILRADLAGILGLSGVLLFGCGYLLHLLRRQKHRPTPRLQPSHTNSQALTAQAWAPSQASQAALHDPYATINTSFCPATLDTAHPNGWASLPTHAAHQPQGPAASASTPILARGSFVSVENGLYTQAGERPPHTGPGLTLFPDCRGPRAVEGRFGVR

T4 sequence (chain, as listed by the source limits assumed): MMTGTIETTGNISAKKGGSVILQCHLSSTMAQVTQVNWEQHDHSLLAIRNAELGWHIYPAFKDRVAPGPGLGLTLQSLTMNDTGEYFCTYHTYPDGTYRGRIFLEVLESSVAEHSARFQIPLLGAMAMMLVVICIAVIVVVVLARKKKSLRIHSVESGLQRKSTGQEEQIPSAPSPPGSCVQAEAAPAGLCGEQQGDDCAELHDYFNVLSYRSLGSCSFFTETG

B1: TIGIT-002-H4L3 (antibody, V domains shown)
VH: EVQLQESGPGLVKPSETLSLTCAVSGYSITSDSWNWIRQPPGKKLEYIGYISYSGNTYYNPSLKSRVTISRDTSKNQFSLKLSSVTAADTAVYYCARLDFSNYGGAVDYWGQGTTVTVSS
VL: DIVMTQSPDSLAVSLGERATINCKASQNVRTAVAWYQQKPGQSPKLMIYSASYRYTGVPDRFSGSGSGTDFTLTISSLQAEDVAVYYCQQYYTTPWTFGGGTKVEIK
notes: Humanized anti-TIGIT antibody
**Q.** With B1 as the binder, how does the “Fold change vs chimeric antibodies (KD)” value [1] read?
**A.** The value was 1.26 fold.

B2: TIGIT-006-H5L3 (antibody, V domains shown)
VH: EVQLQESGPGLVKPSETLSLTCAVSGYSMTSDYWNWIRQPPGKKLEYIGYISYSGRTYYNPSLKSRVTISRDTSKNQFSLKLSSVTAADTAVYYCARGDYSNYGGAMYDWGQGTTVTVSS
VL: DIVMTQSPDSLAVSLGERATINCRASQGVSTTIAWYQQKPGQSPKLLIYSASYRYTGVPRFSGSGSGTDFTLTISSLQAEDVAVYYCQQYYSSPFTFGGGTKVEIK
notes: Humanized anti-TIGIT antibody
**Q.** B2 was tested. Which “Fold change vs chimeric antibodies (KD)” value [2] did it give?
**A.** The value was 0.83 fold.

B3: TIGIT-070-H1L1 (antibody, V domains shown)
VH: EVQLVQSGAEVKKPGASVKVSCKASGYTFTNYYMHWVRQAPGQRLEWMGRIDPDSGGSKYNEKFKSRVTITVDKSASTAYMELSSLRSEDTAVYYCAREGHYGFYSDYWGQGTTVTVSS
VL: DIQMTQSPSSLSASVGDRVTITCRVSENIYSYLAWYQQKPGKSPKLLIYNAKTLAEGVPSRFSGSGSGTDFTLTISSLQPEDFATYYCQHHYGNPLTFGPGTKVDIK
notes: Humanized anti-TIGIT antibody
**Q.** B3 was tested. Which “Fold change vs chimeric antibodies (KD)” value [3] did it give?
**A.** The value was 0.59 fold.

B4: RG6058-hIgG1 (antibody, V domains shown)
VH: EVQLQQSGPGLVKPSQTLSLTCAISGDSVSSNSAAWNWIRQSPSRGLEWLGKTYYRFKWYSDYAVSVKGRITINPDTSKNQFSLQLNSVTPEDTAVFYCTRESTTYDLLAGPFDYWGQGTLVTVSS
VL: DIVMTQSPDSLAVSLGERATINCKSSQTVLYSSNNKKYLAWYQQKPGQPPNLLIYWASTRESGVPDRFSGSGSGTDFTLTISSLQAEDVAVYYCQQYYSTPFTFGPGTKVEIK
notes: human IgG1 format by its name; also called Roche RG6058; control antibody RG6058
**Q.** For B4, which EC50 [4] is on record?
**A.** The EC50 was 0.0158 nM.

**Q.** And the EC50 [5]?
**A.** Its EC50 is 0.0151 nM.

**Q.** What about the “EC50 (read off the curve)” value [6] of the same binder?
**A.** Its value is ~1 nM.

B5: SRF813-hIgG1 (antibody, V domains shown)
VH: QVQLVQSGAEVKKPGSSVKVSCKASGGTFSSAAISWVRQAPGQGLEWMGNIIPIVGIANYAQKFQGRVTITADESTSTAYMELSSLRSEDTAVYYCARDTGRGYTRHFWFDPWGQGTLVTVSS
VL: DIQMTQSPSSLSASVGDRVTITCRASQSISSYLNWYQQKPGKAPKLLIYAASSLQSGVPSRFSGSGSGTDFTLTISSLQPEDFATYYCQQSDILYTFGGGTKVEIK
notes: human IgG1 format by its name
**Q.** With B5 as the binder, how does the “EC50 (read off the curve)” value [7] read?
**A.** Its value is 1 to 1.4 nM.
